Experimental data as given in the supplement of paper PMC12042874.
± gives the uncertainty stated by the source.

Experiment: amyloid nucleation score (Sup35N fusion, yeast selection) (log enrichment); library NNK3; higher = more nucleation; inactive = no reads after selection
Outline: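 Three technical output replicates were used for random libraries. Psi-negative yeast expressing peptides of 20 random codons fused to Sup35N were induced with 100 μM copper sulfate for 24 hours and grown 7 days at 30°C on medium lacking adenine and uracil, and input and output plasmid inserts were Illumina-sequenced, excluding sequences with under 100 input reads. The nucleation score is the DiMSum log enrichment of output over input reads, centred on the mode score of non-aggregating sequences.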

Substance | amyloid nucleation score
SAIKYPLSRRCMWAGSSLLG | inactive
LSGANYLLIRNEGM | inactive
FVGTCGMMSALFLHSSPSFV | inactive
YYWTKGGFKEITI | inactive
LVVKFSLDKWPRQNVSSLAS | inactive
SLWIYTMSYCLSWNYDCFG | 0.669 ± 0.17
VHYSWSTFFD | 0.593 ± 0.27
VSRSRER | inactive
VRHVITSSG | inactive
LELVRG | inactive
RTSYNTFGGFYTNGWTLILR | inactive
TVTHALLSYKCHNG | inactive
FGTPMVNVCMPS | inactive
VRNILRLNRFCWCKTLQKIA | inactive
LGAVCVQMKKIDLSKTLETR | inactive
RSRYSSLPLPVV | inactive
EYADTEKVASNVLFFSRLAG | inactive
LGIIH | inactive
ATFQSRFFCCRSRGGTLGCD | inactive
CEVRGCNYTYSVGERCSQN | inactive
FLFSWEKFVCLCCILY | 0.32 ± 0.49
LNSMGYFILFYIYRFLENLD | inactive
LYRVLSYDLRLDKWCYKTLW | inactive

Substance | amyloid nucleation score
PVNNIYGRLPGLLKLEKVSS | inactive
CQCEIF | 0.065 ± 0.56
MFVRYIAISYWYQLTWEFSV | inactive
AFYYRVELVYLAC | inactive
IYRGHVRQKELFCHRREIQW | inactive
LVRHARNKDNLFGN | inactive
WNMIFTQPNNQPIVVRDFVD | inactive
CLILCLIKYIERRFCWCFPW | inactive
FIIDVLTMASTLGCSVQN | inactive
PRAMLPDWSSALVWWLN | inactive
GICEMVGTSYTFE | inactive
ASVMLNFC | inactive
RVAFSMESTPWSMFTSRTAE | inactive
LRPYHSRVWCVRLQSYSMVR | inactive
KIFRIYICDCELYHTNGMWA | 1.56 ± 0.1
ALSSNKSCVQYS | inactive
GRTVTVWMFASVRRGVTGYV | inactive
LKYNEKDPFECH | -0.318 ± 0.42
SMWYLVLN | inactive
STWGEFVH | inactive
ENVPLNAAYCSL | inactive
NLPTLRVVDILCLCFYRIPS | inactive
ASFSMG | inactive

Substance | amyloid nucleation score
CMYILFINVCMATGANYGSY | 1.58 ± 0.092
PQLLVSYYL | inactive
MNEKENMMNTQWIVCNTCAK | inactive
SVLRYYSNESRLTVHLSVCI | inactive
RGDMMGLSTENTLLLYDVGR | inactive
RITGALRAFGSRTFCASCVC | inactive
NEFGEVLDSN | inactive
SITRWFHTVMSIFKFYFEFD | inactive
DDSLDVSCLEYRSAME | inactive
SILYD | inactive
VTVSAQPAIK | inactive
TLWYSYHINVPYCL | inactive
KRTQDCMDRPRMLAAKASPS | inactive
YVVHRLSRVFQLANLYYYAK | inactive
LCFNLYMFCSYVCGMAIKSL | inactive
VIYISCFTVLLVFLVNTPLR | 1.2 ± 0.11
LNFWTIAWARWRIFLCSVLQ | inactive
AMVYMMNLEIHVYSIRYA | 1.68 ± 0.094
MGNFSFE | inactive
TRMDIESGYVLESYSRPSPM | inactive
TICRCRWGIRPYLALCIHYS | inactive
HQWYG | inactive
GIKFAGRRLTSEDL | inactive

Substance | amyloid nucleation score
WVLLKSWQNCLLGELVSEVQ | inactive
LCKDLDTSCVGSFYIFRQKG | inactive
TKTISGHCPVLMSVFWSMAL | inactive
TFFSYSRTALGATYYSLIIC | inactive
YSRMCLVY | inactive
FSDMCGRSFINSSWGGSAGV | inactive
TCMYNMVVGSLVGRWNC | 1.4 ± 0.13
NCPQWDVCFTYLSSGRQRAD | inactive
TEPIWWEFGCKYHGYISARS | inactive
LFTACNLKIDVLLSTRSFAL | 1.6 ± 0.079
GCRGVTVHSADCCDLSIYLC | 2.31 ± 0.082
GKFLVFAKVNVMVGCVLLFM | inactive
ITSFFESHTVQVYAFYIRVF | inactive
QQEMCTLFFRN | inactive
KCAQEYGEVLS | -0.591 ± 0.8
SCYIEWMVFGSYPL | inactive
PGMISSQGSYTFRAWAVSLR | inactive
FRHPIYCLDLSFSYRMKARG | 0.052 ± 0.28
WGFVW | inactive
VRFCSEMVCLDYFSNIMHLG | inactive
NGELLCKGH | inactive
LYVFCLAILPLDVLRFSLML | inactive
SITWET | inactive

Substance | amyloid nucleation score
GSGGYWFMINVPENKIWVYL | 1.72 ± 0.11
RCYCCPRTDSLGMG | inactive
SMCGYWRHI | inactive
EVCNVVTCGNLFKVTIYNSQ | 2.43 ± 0.068
VLGYILMRLRLYKIQVDISG | inactive
RYGIFMEHEIMYHLNPDGFY | inactive
LVFHYRARKGLSIIG | inactive
LCLRSVRLCGKAYSINDRRH | inactive
SVGRYA | -0.306 ± 0.41
SANYNSNFR | inactive
TILWFSSNETFYAGIHRSCP | inactive
CTVNCMTNNATVLVVRGPLR | 2.26 ± 0.067
PCFLTNEDFYMKFTRN | inactive
LVKPNVDFVT | inactive
KVIDSLVVSRLLTCASRHIR | 1.32 ± 0.077
TYVRHFVIRFMREGRSLGGR | inactive
FSAPVLSTLTASLLELKRSG | inactive
LDLLSAVGGVQRLIIHCCWM | inactive
IGRTCMCLYSAVVFIRHGTT | inactive
QWFVRNFLFNPNALRYFRSS | inactive
NAHPWGYWSIVMRNIKVVVL | inactive
FIPGAMVRYQGRILLRSDAG | inactive
EIIFLS | inactive

Substance | amyloid nucleation score
FRYAMSYVGGMGSSINALIW | inactive
RLLMKV | inactive
MTGLLMSKTARFCRRNR | inactive
VSYKKDCMQTSLRLVITF | inactive
MSSYKCSECLRGHRGTPLPV | inactive
SYNYRGADRWLT | inactive
FTSMFVLIVILSQMLSLQFR | inactive
EAEGNINTRGTHRCLYGSFK | inactive
GIWSASRLKGNSLYCLLKNV | inactive
WLGPYVLHSSAGSGMVDNGT | inactive
DFCMWSYRHRDLCNSVFISS | inactive
DKELKPNFRWGRNFYSFYIC | inactive
ELISGLLRVGLDLKKAVSFD | inactive
PSTVTFRWFIVVSPLRHWFA | inactive
MLCDVSKVDLSRLLGAGVYD | inactive
CRDYYYHSQYCVVASVGTVV | inactive
FHTPRILYTMNS | inactive
NKRLAQRQWDTACFQKG | inactive
VRTLPDLLPINRKQMVKERM | inactive
STYVCDGIDG | inactive
VTLMLSITSP | inactive
LNYMSDFYLLLSERTCVYYQ | 0.754 ± 0.16
FLGSLDFVSIKCQITHVRTS | inactive

Substance | amyloid nucleation score
ACKSGHLNSHKNGYYV | inactive
WFMRFTLSLVTGLVNGSAWS | inactive
ITPTFYVARTKPMLTGGCPK | inactive
CSEVGRS | inactive
WCFCGWMYIISFLSYKKHIM | inactive
NTYVIVPWKLLTNFDEFPHR | inactive
KQVTVNTLMSPPVRYL | inactive
VRIFYMV | inactive
CLGFSL | inactive
QFIEMSSQYFSMRYVDRVAD | inactive
NCICLSGHFGHL | 2.24 ± 0.091
YMLLQERLECSSLVDVSYVR | inactive
VQHFRHQSASELV | inactive
LIRMQVGLLGV | inactive
ANSYLTYN | inactive
KSGRSCYIFVYMWQLTVYSG | inactive
WSVITT | inactive
KSNYEGTFGRHVLGPLKNKW | -0.463 ± 1.8
MWFHLSYMAIFNGVSMQDVC | inactive
LFISFIVLRKALFTYTCLCF | inactive
EIVYCPWLQSWRA | inactive
